In general, IC50 refers to the concentration that inhibits the measured activity by half.

Experiment [1] concerns the target laminin α-4 (UniProt Q16363 25-1823). The experiment is described as follows: FACS on MCAM mutants displayed on mammalian cells.
The target in experiment [2] is T1, human MCAM domain 3 hFc construct (human, UniProt P43121 244-321).
T1 construct: One of the 'various MCAMhFc domains' loaded on the ForteBio sensors; also called MCAMhFc domain 3
T1 sequence: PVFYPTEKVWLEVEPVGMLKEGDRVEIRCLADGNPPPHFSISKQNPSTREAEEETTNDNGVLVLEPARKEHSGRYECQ
The experiment is described as follows: ForteBio Octet Red, MCAMhFc domains on anti-human IgG Fc sensors, antibody at 5 ug/ml. From the text:
(§1) The following protocol was used: ForteBio anti-human IgG Fc biosensors were used to immobilize various MCAMhFc domains including full length MCAMhFc protein on to biosensor surface. […] After loading these samples into a black 96 well plate, the Octet Red was programmed as follows: 60 seconds for baseline #1; 180 seconds for loading various domains; 60 seconds for baseline #2; 180 seconds for association of antibody to domain; and 240 seconds for dissociation of antibody from domain.
(§2) Reagents and Supplies Used: [0358] 1. MCAMhFc final concentration @ 5 ug/ml [0359] […] 3. ForteBio anti-human IgG Fc Capture (AHC) biosensors for kinetics experiments, cat#18-5060 [0361] 4. Block 96 well plate from Greiner Bio-one, cat#655209 [0362] 5. ForteBio Octet Red machine [0363] 6. Fresh tissue culture medium, DMEM with 20% FCS, was used as buffer for dilution

The target in experiment [3] is T2, human MCAM-Fc protein (extracellular domain of human MCAM fused to human IgG) (human, UniProt P43121 24-559).
T2 construct: also called hMCAM-Fc; MCAMhFc
T2 chain: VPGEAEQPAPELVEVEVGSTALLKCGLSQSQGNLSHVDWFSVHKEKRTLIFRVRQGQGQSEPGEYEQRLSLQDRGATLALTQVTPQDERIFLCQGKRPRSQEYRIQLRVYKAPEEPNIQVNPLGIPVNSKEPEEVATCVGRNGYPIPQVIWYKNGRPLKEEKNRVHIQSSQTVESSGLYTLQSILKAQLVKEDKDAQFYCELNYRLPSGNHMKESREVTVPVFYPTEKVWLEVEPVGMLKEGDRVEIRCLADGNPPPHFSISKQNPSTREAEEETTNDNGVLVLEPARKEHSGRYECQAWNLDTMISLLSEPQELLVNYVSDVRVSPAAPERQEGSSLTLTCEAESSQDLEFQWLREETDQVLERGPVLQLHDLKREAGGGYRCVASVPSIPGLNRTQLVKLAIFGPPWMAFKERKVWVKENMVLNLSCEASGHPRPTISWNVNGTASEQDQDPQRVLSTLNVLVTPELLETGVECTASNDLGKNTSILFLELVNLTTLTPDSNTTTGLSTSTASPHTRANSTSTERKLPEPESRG
The experiment is described as follows: summary sentence of Example 3 (ForteBio, MCAMhFc).
Source text: as §1, §2
(In BLI a coated tip is dipped into the sample, and binding shifts an interference pattern.)

The target of experiment [4] is T3, human MCAM domains 1 and 2 hFc construct (human, UniProt P43121 19-242).
T3 construct: One of the 'various MCAMhFc domains' loaded on the ForteBio sensors
T3 sequence: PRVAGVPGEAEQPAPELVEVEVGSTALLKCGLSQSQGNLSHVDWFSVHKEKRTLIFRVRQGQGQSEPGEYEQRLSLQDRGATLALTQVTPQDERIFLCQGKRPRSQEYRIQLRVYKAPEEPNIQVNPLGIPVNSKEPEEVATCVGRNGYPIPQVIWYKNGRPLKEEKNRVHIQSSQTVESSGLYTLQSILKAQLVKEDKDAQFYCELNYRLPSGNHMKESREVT
The experiment is described as follows: ForteBio Octet Red, MCAMhFc domains on anti-human IgG Fc sensors.
Source text: as §1, §2

Experiment [5] addresses T4, human MCAM domain 1 hFc construct (human, UniProt P43121 19-129).
T4 construct: One of the 'various MCAMhFc domains' loaded on the ForteBio sensors; also called MCAMhFc domain 1
T4 sequence: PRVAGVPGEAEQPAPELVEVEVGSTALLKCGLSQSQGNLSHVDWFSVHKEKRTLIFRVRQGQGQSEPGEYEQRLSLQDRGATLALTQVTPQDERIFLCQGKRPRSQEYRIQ
The description is as above.
Source text: as §1, §2

For experiment [6], the target named is T5, human MCAM domain 2 hFc construct (human, UniProt P43121 139-242).
T5 construct: One of the 'various MCAMhFc domains' loaded on the ForteBio sensors; also called MCAMhFc domain 2
T5 sequence: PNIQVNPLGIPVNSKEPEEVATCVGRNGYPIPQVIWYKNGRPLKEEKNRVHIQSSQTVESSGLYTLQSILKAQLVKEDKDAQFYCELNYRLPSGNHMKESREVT
The experiment is described as above.
Source text: as §1, §2

For experiment [7], the target named is T6, human MCAM expressed on CHO cells (full length human MCAM gene) (human, UniProt P43121 24-646).
T6 construct: also called hMCAM expressing CHO cells; CD146
T6 chain: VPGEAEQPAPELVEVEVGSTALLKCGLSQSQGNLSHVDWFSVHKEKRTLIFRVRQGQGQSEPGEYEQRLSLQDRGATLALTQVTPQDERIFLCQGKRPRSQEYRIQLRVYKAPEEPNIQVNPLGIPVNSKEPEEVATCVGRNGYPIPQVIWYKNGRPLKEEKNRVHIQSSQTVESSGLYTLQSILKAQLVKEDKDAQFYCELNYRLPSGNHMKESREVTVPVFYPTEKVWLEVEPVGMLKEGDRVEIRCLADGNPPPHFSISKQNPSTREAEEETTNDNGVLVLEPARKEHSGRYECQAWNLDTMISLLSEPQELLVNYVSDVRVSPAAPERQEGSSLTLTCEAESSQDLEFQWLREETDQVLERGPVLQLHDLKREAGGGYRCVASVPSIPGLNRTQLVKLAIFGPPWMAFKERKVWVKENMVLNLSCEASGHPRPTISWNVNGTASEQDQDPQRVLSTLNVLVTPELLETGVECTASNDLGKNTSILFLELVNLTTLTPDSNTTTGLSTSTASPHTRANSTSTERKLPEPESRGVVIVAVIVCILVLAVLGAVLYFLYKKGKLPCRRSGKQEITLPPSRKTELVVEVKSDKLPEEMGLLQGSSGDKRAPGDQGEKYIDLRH
The experiment is described as follows: flow cytometry: blocking of recombinant human laminin 411 (20 ug/ml) binding to CHO cells expressing human MCAM. Here is the method:
The 87 independent mouse fusion clones and 26 independent rat fusion clones described in Example 1 above as being capable of (i) binding to human MCAM, and (ii) blocking the interaction between human MCAM and the α-4 chain of laminin were further characterized as follows. First, IC50 quantitation for the ability of the monoclonal antibody to block the binding of human MCAM to the α-4 chain of laminin was determined as follows. CHO cells expressing human MCAM were incubated with an anti-human MCAM antibody (at various concentrations) for 30 minutes at 4 degrees Celsius. […] Unbound laminin was then washed away, and the laminin bound to the surface of the cells was detected with fluorescently labeled anti-laminin antibodies. After washing, the amount of laminin bound to the surface was detected by flow cytometry, and IC50s were calculated based on the mean fluorescent intensity.
Amino acid and nucleic acid sequences of the heavy and light chains of these antibodies, and their hypervariable regions, are provided in SEQ ID NOs:29-92. […] As such, each of these specific monoclonal antibodies was very capable of binding to human MCAM and inhibiting the interaction of cell-expressed human MCAM with its α-4 laminin binding ligand.
A general note: In flow cytometry, cells or beads pass a laser one at a time.

Experiment [8] addresses T7, recombinant hMCAM-His (human, UniProt P43121 24-559).
T7 chain: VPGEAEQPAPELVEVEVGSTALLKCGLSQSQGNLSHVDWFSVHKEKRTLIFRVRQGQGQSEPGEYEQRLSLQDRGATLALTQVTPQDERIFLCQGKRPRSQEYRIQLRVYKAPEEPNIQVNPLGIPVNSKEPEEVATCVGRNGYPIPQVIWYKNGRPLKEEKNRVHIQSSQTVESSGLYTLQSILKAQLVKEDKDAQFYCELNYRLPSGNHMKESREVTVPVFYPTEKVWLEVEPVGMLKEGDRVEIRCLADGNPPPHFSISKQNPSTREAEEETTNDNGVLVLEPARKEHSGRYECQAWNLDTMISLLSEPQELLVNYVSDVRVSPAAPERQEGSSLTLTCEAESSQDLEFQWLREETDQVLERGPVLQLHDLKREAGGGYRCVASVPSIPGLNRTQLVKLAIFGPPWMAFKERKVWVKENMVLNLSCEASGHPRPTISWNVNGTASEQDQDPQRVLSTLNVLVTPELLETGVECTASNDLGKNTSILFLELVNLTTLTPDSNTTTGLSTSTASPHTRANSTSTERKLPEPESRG
The experiment is described as follows: competitive ELISA on coated hMCAM-His, competitor biotinylated rodent or chimeric 2120; IC50 relative to rodent 2120, Expt. #1. Here is the method:
The apparent affinities of the humanized antibodies were compared to the parental rodent or chimeric antibody in a competitive ELISA according to the following protocol: ELISA plates were coated with recombinant hMCAM-His, and blocked with casein buffer to prevent non-specific binding. Biotinylated rodent or chimeric antibody was added at a subsaturating concentration, in the presence or absence of 3× increasing concentrations of unlabeled competitor (humanized antibody, rodent, or chimeric). After washing to remove unbound antibody, streptavidin HRP was added to allow detection of the biotinylated antibody. The ELISA was developed with TMB substrate and the OD450 was measured. The IC50 of the unlabeled competitor was determined using the GraphPad Prism5 software.

Experiment [9] addresses T7, recombinant hMCAM-His. The experiment is described as follows: ForteBio Octet Red, antibody on anti-human Fc sensors, hMCAMHis analyte, 1:1 fit; affinity relative to rodent 2120, Expt. #1. Here is the method: The affinities were measured using the ForteBio Octet Red. Anti-human Fc sensors were used to capture the humanized antibodies, and several concentrations of hMCAMHis analyte were used to determine the affinity using a 1:1 fitting model.

Chain of laminin α-4 (Q16363 25-1823): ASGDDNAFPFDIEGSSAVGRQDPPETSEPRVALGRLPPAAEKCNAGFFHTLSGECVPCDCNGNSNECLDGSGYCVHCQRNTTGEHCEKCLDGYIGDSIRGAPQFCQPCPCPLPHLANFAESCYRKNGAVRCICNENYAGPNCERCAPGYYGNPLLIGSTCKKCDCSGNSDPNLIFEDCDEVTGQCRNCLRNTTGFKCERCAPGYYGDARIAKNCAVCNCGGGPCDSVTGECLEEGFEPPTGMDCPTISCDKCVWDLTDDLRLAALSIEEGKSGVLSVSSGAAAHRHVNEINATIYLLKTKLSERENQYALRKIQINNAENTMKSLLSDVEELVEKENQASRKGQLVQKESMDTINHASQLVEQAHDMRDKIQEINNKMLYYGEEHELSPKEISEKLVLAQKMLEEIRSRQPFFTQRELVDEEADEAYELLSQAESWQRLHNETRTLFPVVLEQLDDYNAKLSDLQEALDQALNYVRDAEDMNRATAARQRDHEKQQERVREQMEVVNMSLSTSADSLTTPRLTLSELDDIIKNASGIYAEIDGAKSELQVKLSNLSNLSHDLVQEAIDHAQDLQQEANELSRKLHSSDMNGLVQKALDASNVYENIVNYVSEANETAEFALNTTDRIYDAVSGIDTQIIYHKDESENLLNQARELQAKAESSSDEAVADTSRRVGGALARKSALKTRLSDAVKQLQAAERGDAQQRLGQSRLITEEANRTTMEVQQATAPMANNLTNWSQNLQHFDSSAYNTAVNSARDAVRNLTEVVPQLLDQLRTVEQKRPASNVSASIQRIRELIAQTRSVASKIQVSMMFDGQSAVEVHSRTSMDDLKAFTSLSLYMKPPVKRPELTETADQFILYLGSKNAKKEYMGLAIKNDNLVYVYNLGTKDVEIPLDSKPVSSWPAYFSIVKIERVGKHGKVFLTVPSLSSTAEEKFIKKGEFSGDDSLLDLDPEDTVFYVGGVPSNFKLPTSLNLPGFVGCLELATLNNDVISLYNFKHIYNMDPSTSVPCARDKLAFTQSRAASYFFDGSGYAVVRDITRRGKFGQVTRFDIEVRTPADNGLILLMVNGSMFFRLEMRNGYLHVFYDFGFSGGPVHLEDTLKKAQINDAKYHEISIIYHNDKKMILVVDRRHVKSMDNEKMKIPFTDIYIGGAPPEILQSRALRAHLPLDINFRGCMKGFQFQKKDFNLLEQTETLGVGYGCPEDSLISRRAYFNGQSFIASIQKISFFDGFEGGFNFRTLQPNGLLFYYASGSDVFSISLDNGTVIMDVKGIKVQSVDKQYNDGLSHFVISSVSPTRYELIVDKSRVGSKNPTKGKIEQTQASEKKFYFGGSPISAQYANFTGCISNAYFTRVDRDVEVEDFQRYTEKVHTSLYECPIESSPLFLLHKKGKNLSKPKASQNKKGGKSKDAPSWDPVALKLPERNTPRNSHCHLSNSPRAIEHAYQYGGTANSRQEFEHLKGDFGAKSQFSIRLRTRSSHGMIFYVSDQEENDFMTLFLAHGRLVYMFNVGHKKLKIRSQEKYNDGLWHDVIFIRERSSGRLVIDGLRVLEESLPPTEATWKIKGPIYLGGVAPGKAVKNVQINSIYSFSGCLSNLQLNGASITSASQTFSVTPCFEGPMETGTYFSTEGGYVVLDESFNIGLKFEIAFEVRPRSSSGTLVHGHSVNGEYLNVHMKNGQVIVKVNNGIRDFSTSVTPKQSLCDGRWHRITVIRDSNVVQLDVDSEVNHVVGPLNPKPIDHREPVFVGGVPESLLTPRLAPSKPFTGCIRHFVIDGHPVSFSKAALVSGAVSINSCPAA

B1: human MCAM I141A mutant displayed on mammalian cells (Example 5) (receptor)
chain: VPGEAEQPAPELVEVEVGSTALLKCGLSQSQGNLSHVDWFSVHKEKRTLIFRVRQGQGQSEPGEYEQRLSLQDRGATLALTQVTPQDERIFLCQGKRPRSQEYRIQLRVYKAPEEPNAQVNPLGIPVNSKEPEEVATCVGRNGYPIPQVIWYKNGRPLKEEKNRVHIQSSQTVESSGLYTLQSILKAQLVKEDKDAQFYCELNYRLPSGNHMKESREVTVPVFYPTEKVWLEVEPVGMLKEGDRVEIRCLADGNPPPHFSISKQNPSTREAEEETTNDNGVLVLEPARKEHSGRYECQAWNLDTMISLLSEPQELLVNYVSDVRVSPAAPERQEGSSLTLTCEAESSQDLEFQWLREETDQVLERGPVLQLHDLKREAGGGYRCVASVPSIPGLNRTQLVKLAIFGPPWMAFKERKVWVKENMVLNLSCEASGHPRPTISWNVNGTASEQDQDPQRVLSTLNVLVTPELLETGVECTASNDLGKNTSILFLELVNLTTLTPDSNTTTGLSTSTASPHTRANSTSTERKLPEPESRGVVIVAVIVCILVLAVLGAVLYFLYKKGKLPCRRSGKQEITLPPSRKTELVVEVKSDKLPEEMGLLQGSSGDKRAPGDQGEKYIDLRH
notes: construct and any tag not described
On to B1, for which the binding result in [1] is on record as “no binding”.

B2: mouse anti-human MCAM monoclonal antibody clone 1749.1.3 (antibody, V domains shown)
VH: DVKLVESGGDLVKPGGSLKLSCAASGFTFSSYIMSWVRQTPEKRLEWVATISSGGSSTYYPDSVKGRFTISRDNAKNTLYLQMSSLKSEDTAMYYCTRDDDYDVKVFAYWGQGTLVTVSA
VL: DIVMSQSPSSLAVSAGEKVTMNCKSSRSLLNSRIRKNYLAWYQQKPGQSPKLLIYWASTRESGVPDRFTGSGSGTDFTLTISSVQAEDLAVYYCKQSYNLLTFGAGTKLELK
notes: Mouse hybridoma antibody
B2: the binding result in [2] was “binds”; in [3], “binds”; in experiment [4], “no binding (tested: 5 ug/ml)”; in experiment [5], “no binding (tested: 5 ug/ml)”; in experiment [6], “no binding (tested: 5 ug/ml)”. In addition, in experiment [7], the IC50 amounted to 0.545 µg/mL.

B3: humanized anti-MCAM antibody h2120_VH3 + h2120_VL3 (antibody, V domains shown)
VH: QVTLKESGPVLVKPTETLTLTCTVSGFSLTSSGVSWVRQPPGKALEWIAAISSGGTTYYNSAFKSRLTISRDTSKSQVVLTMTNMDPVDTATYYCARRYGYGWYFDFWGQGTLVTVSS
VL: DIQMTQSPSSLSASVGDRVTINCKASQNIYNSLAWYQQKPGKAPKVLIFNANSLQTGIPSRFSGSGSGTDFTLTISSLQPEDFATYYCQQFYSGYTFGQGTKLEIK
notes: Human IgG1 / human kappa; also called h2120VH3VL3; N-S deamidate VH + conservative VL
On to B3, for which the “Fold over rodent (ELISA)” value in [8] was determined as 3.47 fold. The “Fold over rodent (Forte)” value in experiment [9] was 16.1 fold.

B4: mouse anti-human MCAM monoclonal antibody clone 1415.1.1 (antibody, V domains shown)
VH: QVQLQQPGAELVQPGAPVKLSCKASGYIFTSYWMNWVKQRPGRGLEWIGRIDPSDSKIHYNQKFKDKATLTVDRSSSTAYIQLGSLTSEDSAVYYCAKEGGLRRGDYAMDYWGQGTSVTVSS
VL: DIVMTQSPATLSVTPGDRVSLSCRASQSISDYLHWYQQKSHESPRLLIKYASQSISGIPSRFSGSGSGSDFTLSINSVEPEDVGVYYCQNGHNFPRTFGGGTKLEIK
notes: Mouse hybridoma antibody
With B4, the binding result in experiment [2] is listed as “binds”; in experiment [3], “binds”; in experiment [4] it was “no binding (tested: 5 ug/ml)”; in [5], “no binding (tested: 5 ug/ml)”; in experiment [6], “no binding (tested: 5 ug/ml)”. For the same molecule, the IC50 in experiment [7] amounted to 0.307 µg/mL.

The record behind these values is US20170101470A1 (PROTHENA BIOSCIENCES, published 2017).
